# In article PMC12752793, “Development of potent Affitin-based bispecific NK cell engagers for the therapy of MSLN-expressing cancers” (Molecular Therapy Oncology, 2025):
# T1: recombinant 302–359 fragment of human mesothelin (hMSLN) (human, UniProt Q13421 302-359, biotin on the AviTag)
# T1 chain: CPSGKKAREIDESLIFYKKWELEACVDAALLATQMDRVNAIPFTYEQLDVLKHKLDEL
# Experiments:
# [1] = molecular target: human mesothelin on the surface of Meso34-MSLN cells (human) (UniProt Q13421)
# [2] = molecular target: human mesothelin on the surface of Meso34-MSLN cells (human) (UniProt Q13421); test: flow cytometry on cells; Meso34-MSLN and NK92CD16h cells incubated with increasing concentrations of BiKEs, 30 min at 4°C; streptavidin-PE; one binding site regression
# [3] = molecular target: T1, recombinant 302–359 fragment of human …; test: SPR
# [4] = molecular target: recombinant 302–359 fragment of human mesothelin (hMSLN) (human) (UniProt Q13421); test: SPR; Biacore T200; hMSLN 302–359 amine-coupled at about 700 RU on CM5; analytes 12.5 to 200 nM in HBS-EP, single cycle kinetics, 30 μL/min; Langmuir model
# [5] = molecular target: T1, recombinant 302–359 fragment of human …; test: SPR; bivalent model, kd2
# [6] = molecular target: T1, recombinant 302–359 fragment of human …; test: SPR; bivalent model, kd1
# [7] = molecular target: recombinant 302–359 fragment of human mesothelin (hMSLN) (human) (UniProt Q13421); test: SPR; Biacore T200; hMSLN 302–359 amine-coupled at about 700 RU on CM5; analytes 12.5 to 200 nM in HBS-EP, single cycle kinetics, 30 μL/min; bivalent model; apparent
# [8] = molecular target: human mesothelin on the surface of Meso34-MSLN cells (human) (UniProt Q13421); test: flow cytometry on cells; Meso34 and Meso34-MSLN cells stained with a concentration range of N13 monomer (streptavidin-PE), N13 dimer (anti-6X His Tag-PE) or MORAb-009 (anti-human IgG Fc), 30 min at 4°C; EC50 by one binding site regression
# [9] = molecular target: T1, recombinant 302–359 fragment of human …; test: SPR
# [10] = molecular target: T2, recombinant 302–359 fragment of human mesothelin (hMSLN) (Homo sapiens, UniProt Q13421, biotin on the AviTag); test: SPR; Biacore T200; hMSLN 302–359 amine-coupled at about 700 RU on CM5; analytes 12.5 to 200 nM in HBS-EP, single cycle kinetics, 30 μL/min; Langmuir model; conditions: both partners purified
# T2 construct: Amine-coupled to a CM5 chip in SPR, captured on NeutrAvidin in ELISA; source: E. coli Origami B with pBirA, purified (Ni-NTA, Superdex 75); not shown: AviTag, C-terminal, kept
# [11] = molecular target: T1, recombinant 302–359 fragment of human …; test: SPR
# [12] = molecular target: T1, recombinant 302–359 fragment of human …; test: SPR; bivalent model, kd2
# [13] = molecular target: T1, recombinant 302–359 fragment of human …; test: SPR; bivalent model, kd1
# Chain of human mesothelin on the surface of Meso34-MSLN cells (human) (Q13421 other isoform, or with tags, fused parts or gaps): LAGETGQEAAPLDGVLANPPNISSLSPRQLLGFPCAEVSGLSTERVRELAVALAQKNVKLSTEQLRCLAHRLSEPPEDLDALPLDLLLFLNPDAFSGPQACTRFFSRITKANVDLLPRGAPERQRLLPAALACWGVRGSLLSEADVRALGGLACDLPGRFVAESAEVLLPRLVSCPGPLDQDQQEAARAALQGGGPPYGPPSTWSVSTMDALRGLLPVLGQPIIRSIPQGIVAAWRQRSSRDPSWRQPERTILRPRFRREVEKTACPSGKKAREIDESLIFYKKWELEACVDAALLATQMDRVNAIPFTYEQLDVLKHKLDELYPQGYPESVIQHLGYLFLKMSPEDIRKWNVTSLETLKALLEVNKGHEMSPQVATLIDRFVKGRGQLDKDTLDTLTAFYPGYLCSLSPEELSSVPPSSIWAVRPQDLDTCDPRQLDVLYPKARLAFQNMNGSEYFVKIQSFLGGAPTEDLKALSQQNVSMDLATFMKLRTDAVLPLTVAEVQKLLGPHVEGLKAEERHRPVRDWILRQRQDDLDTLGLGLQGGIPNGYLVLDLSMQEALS
binder,measurement,setting,value
"C21(N13)1 bispecific NK cell engager (anti-CD16 VHH C21 fused to one N13 Affitin) (designed binder, biotin on the AviTag) MEVQLVESGGELVQAGGSLRLSCAASGLTFSSYNMGWFRRAPGKEREFVASITWSGRDTFYADSVKGRFTISRDNAKNTVYLQMSSLKPEDTAVYYCAANPWPVAAPRSGTYWGQGTQVTVSSPSGQAGAAASESLFVSNHAYGSATKVKFKVFGEEKEVDISKIKHVDRMNWRGLLYIRFSYDDNGKLGHGWVSEKDAPKELLEKLKKLNRGSHHHHHHGSGLNDIFEAQKIEWHE","ED50 of NK92CD16h-mediated 51Cr cytotoxicity on Meso34-MSLN cells, effector/target ratio 10:1",[1],5.62 nM
same,"ED50 of NK92CD16h-mediated 51Cr cytotoxicity on Meso34-MSLN cells, effector/target ratio 20:1",[1],3.11 nM
same,"maximal NK92CD16h-mediated 51Cr cytotoxicity on Meso34-MSLN cells, effector/target ratio 10:1",[1],19.2%
same,"maximal NK92CD16h-mediated 51Cr cytotoxicity on Meso34-MSLN cells, effector/target ratio 20:1",[1],26.1%
same,affinity for Meso34-hMSLN cells,[2],> 100 nM
same,koff,[3],0.0385 s⁻¹
same,Kd,[4],67.1 nM
N13 Affitin homodimer (two N13 Affitins linked by a 20-amino-acid HMA linker) (designed binder) MRGSHHHHHHGSATKVKFKVFGEEKEVDISKIKHVDRMNWRGLLYIRFSYDDNGKLGHGWVSEKDAPKELLEKLKPSGQAGAAASESLFVSNHAYGSGATKVKFKVFGEEKEVDISKIKHVDRMNWRGLLYIRFSYDDNGKLGHGWVSEKDAPKELLEKLKLGSGLNDIFEAQKIEWHE,koff,[5],0.000767 s⁻¹
same,koff,[6],0.0573 s⁻¹
same,Kd,[7],0.57 nM
same,fold reduction of the dissociation rate constant (kd) against the N13 monomer,[7],84 fold
same,EC50,[8],2.22 nM
same,fold increase in affinity for cellular hMSLN against the N13 monomer,[8],1000 fold
"N23 Affitin (monomer) (designed binder, biotin on the AviTag) MRGSHHHHHHGSATKVKFKLFGEEKEVDISKIKRVERRAIQAASYIAFAYDDNGKIGHGWVSEKDAPKELLEKLKLN",koff,[9],0.288 s⁻¹
"N18 Affitin (monomer) (designed binder, biotin on the AviTag) MRGSHHHHHHGSATKVKFKLFGEEKEVDISKIKKVERRTFHMDKTIVFMYDDNGKSGYGWVSEKDAPKELLEKLKLN",koff,[9],0.073 s⁻¹
VHH A1 (anti-hMSLN VHH) (VHH) VHH: DVQLQESGGGLVHPGGSLRLSCAASGIDLSLYRMRWYRQAPGKERDLVALITDDGTSYYEDSVKGRFTITRDNPSNKVFLQMNSLKPEDTAVYYCNAETPLSPVNYWGQGTQVTVSS,Kd,[10],15.6 nM
same,koff,[11],0.804 s⁻¹
"C21(N13)2 bispecific NK cell engager (anti-CD16 VHH C21 fused to a homodimer of N13 Affitin) (designed binder, biotin on the AviTag) MEVQLVESGGELVQAGGSLRLSCAASGLTFSSYNMGWFRRAPGKEREFVASITWSGRDTFYADSVKGRFTISRDNAKNTVYLQMSSLKPEDTAVYYCAANPWPVAAPRSGTYWGQGTQVTVSSPSGQAGAAASESLFVSNHAYGSATKVKFKVFGEEKEVDISKIKHVDRMNWRGLLYIRFSYDDNGKLGHGWVSEKDAPKELLEKLKPSGQAGAAASESLFVSNHAYGSGATKVKFKVFGEEKEVDISKIKHVDRMNWRGLLYIRFSYDDNGKLGHGWVSEKDAPKELLEKLKLNRGSHHHHHHGSGLNDIFEAQKIEWHE","ED50 of NK92CD16h-mediated 51Cr cytotoxicity on Meso34-MSLN cells, effector/target ratio 10:1",[1],0.325 nM
same,"ED50 of NK92CD16h-mediated 51Cr cytotoxicity on Meso34-MSLN cells, effector/target ratio 20:1",[1],0.277 nM
same,"maximal NK92CD16h-mediated 51Cr cytotoxicity on Meso34-MSLN cells, effector/target ratio 10:1",[1],22.6%
same,"maximal NK92CD16h-mediated 51Cr cytotoxicity on Meso34-MSLN cells, effector/target ratio 20:1",[1],38.9%
same,koff,[12],0.000762 s⁻¹
same,koff,[13],0.136 s⁻¹
same,EC50,[2],7.45 nM
same,Kd,[7],0.831 nM
"N7 Affitin (monomer) (designed binder, biotin on the AviTag) MRGSHHHHHHGSATKVKFKYMGEEKEVDISKIKVVSRSVGPLGSFILFQYDDNGKMGRGFVSEKDAPKELLEKLKLN",koff,[9],0.214 s⁻¹
"N13 Affitin (monomer) (designed binder, biotin on the AviTag) MRGSHHHHHHGSATKVKFKVFGEEKEVDISKIKHVDRMNWRGLLYIRFSYDDNGKLGHGWVSEKDAPKELLEKLKLN",koff,[9],0.0647 s⁻¹
